This note sets out measurements from the supplement of paper PMC10567573.

B1: SLC22A15 (parent)
chain: IAQYALLGYFIRSWRTLAILVNLQ
B2: FAM189A2 (parent)
chain: VAAALRYLQIFATRRSCIDESQIS
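Further: lentivirally expressed fusions sorted by FACS into six bins by GFP to DsRed ratio, PSI derived from sequencing read proportions per bin multiplied by bin number.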

Variants of B1 are the subject of one series. As to the kind of experiment: protein stability index of a GFP-peptide fusion (GPS, HEK-293T) (PSI 1-6); higher = more stable. Particulars: c terminus: a fixed tail appended.
Turning to IAQYALLGYFIRSWRTLAILQNLQ, the protein stability index was 2.24.

Regarding IAQYALLGYFIRSWRTLAILINLQ, the protein stability index amounted to 4.67.

As to IAQYALLGYFIRSWRTLAILCNLQ, the protein stability index came out at 2.52.

On to IAQYALLGYFIRSWRTLAILANLQ, for which the protein stability index stood at 2.78.

For IAQYALLGYFIRSWRTLAILGNLQ, the protein stability index was 1.76.

In the case of IAQYALLGYFIRSWRTLAILKNLQ, the protein stability index was 2.38.

Consider IAQYALLGYFIRSWRTLAILNNLQ, for which the protein stability index was 2.8.

Regarding IAQYALLGYFIRSWRTLAILSNLQ, the protein stability index came out at 2.08.

For IAQYALLGYFIRSWRTLAILYNLQ, the protein stability index was 2.37.

With IAQYALLGYFIRSWRTLAILDNLQ, the protein stability index was found to be 2.85.

In the case of IAQYALLGYFIRSWRTLAILLNLQ, the protein stability index was found to be 3.19.

As for IAQYALLGYFIRSWRTLAILFNLQ, the protein stability index was determined as 2.86.

For the variant IAQYALLGYFIRSWRTLAILPNLQ, the protein stability index turned out to be 3.37.

Take IAQYALLGYFIRSWRTLAILENLQ: the protein stability index is 2.14.

Consider IAQYALLGYFIRSWRTLAILHNLQ, for which the protein stability index is 2.69.

Turning to IAQYALLGYFIRSWRTLAILRNLQ, the protein stability index came out at 2.7.

Regarding IAQYALLGYFIRSWRTLAILTNLQ, the protein stability index stood at 3.6.

Take IAQYALLGYFIRSWRTLAIIVNLQ: the protein stability index turned out to be 5.13.

For the variant IAQYALLGYFIRSWRTLAIQVNLQ, the protein stability index was 3.19.

For the variant IAQYALLGYFIRSWRTLAIPVNLQ, the protein stability index was found to be 3.33.

For IAQYALLGYFIRSWRTLAIGVNLQ, the protein stability index worked out at 3.27.

On to IAQYALLGYFIRSWRTLAINVNLQ, for which the protein stability index was determined as 2.

Regarding IAQYALLGYFIRSWRTLAIKVNLQ, the protein stability index is 2.38.

For IAQYALLGYFIRSWRTLAIWVNLQ, the protein stability index was found to be 2.32.

For IAQYALLGYFIRSWRTLAIMVNLQ, the protein stability index amounted to 3.89.

Turning to IAQYALLGYFIRSWRTLAISVNLQ, the protein stability index is 3.12.

Regarding IAQYALLGYFIRSWRTLAIEVNLQ, the protein stability index stood at 2.77.

With IAQYALLGYFIRSWRTLAITVNLQ, the protein stability index was 2.91.

Regarding IAQYALLGYFIRSWRTLAIYVNLQ, the protein stability index worked out at 2.76.

IAQYALLGYFIRSWRTLAIHVNLQ: the protein stability index was 3.94.

As to IAQYALLGYFIRSWRTLAIRVNLQ, the protein stability index came to 3.09.

As to IAQYALLGYFIRSWRTLAIVVNLQ, the protein stability index was found to be 2.1.

As for IAQYALLGYFIRSWRTLAILVNDQ, the protein stability index came to 3.83.

Turning to IAQYALLGYFIRSWRTLAILVNQQ, the protein stability index was 3.66.

As for IAQYALLGYFIRSWRTLAILVNNQ, the protein stability index worked out at 3.06.

Consider IAQYALLGYFIRSWRTLAILVNAQ, for which the protein stability index worked out at 2.65.

With IAQYALLGYFIRSWRTLAILVNIQ, the protein stability index was 2.5.

Regarding IAQYALLGYFIRSWRTLAILVNSQ, the protein stability index came to 3.76.

Turning to IAQYALLGYFIRSWRTLAILVNTQ, the protein stability index was 3.08.

For the variant IAQYALLGYFIRSWRTLAILVNEQ, the protein stability index worked out at 2.25.

On to IAQYALLGYFIRSWRTLAILVNKQ, for which the protein stability index was 3.75.

As for IAQYALLGYFIRSWRTLAILVNMQ, the protein stability index was determined as 4.11.

Take IAQYALLGYFIRSWRTLAILVNHQ: the protein stability index came out at 2.81.

As for IAQYALLGYFIRSWRTLAILVNPQ, the protein stability index came out at 2.52.

Consider IAQYALLGYFIRSWRTLAILVNRQ, for which the protein stability index is 2.6.

On to IAQYALLGYFIRSWRTLAILVNWQ, for which the protein stability index is 2.35.

For IAQYALLGYFIRSWRTLAILVNVQ, the protein stability index turned out to be 4.42.

For IAQYALLGYFIRSWRTLAILVNYQ, the protein stability index came to 3.34.

Turning to IAQYALLGYFIRSWRTLAILVNFQ, the protein stability index is 2.79.

IAQYALLGYFIRSWRTLAILVNCQ: the protein stability index was 3.16.

As for IAQYALLGYFIRSWRTLAILVNGQ, the protein stability index was 3.35.

As for IAQYALLGYFIRSWRTLAILVNLV, the protein stability index was 2.92.

As for IAQYALLGYFIRSWRTLAILVNLH, the protein stability index is 2.79.

In the case of IAQYALLGYFIRSWRTLAILVNLC, the protein stability index amounted to 2.35.

IAQYALLGYFIRSWRTLAILVNLF: the protein stability index amounted to 2.7.

Turning to IAQYALLGYFIRSWRTLAILVNLG, the protein stability index worked out at 2.66.

Regarding IAQYALLGYFIRSWRTLAILVNLW, the protein stability index worked out at 2.37.

Consider IAQYALLGYFIRSWRTLAILVNLD, for which the protein stability index turned out to be 2.49.

Consider IAQYALLGYFIRSWRTLAILVNLY, for which the protein stability index worked out at 2.82.

In the case of IAQYALLGYFIRSWRTLAILVNLA, the protein stability index was found to be 4.01.

IAQYALLGYFIRSWRTLAILVNLR: the protein stability index amounted to 3.17.

As to IAQYALLGYFIRSWRTLAILVNLN, the protein stability index came out at 2.07.

With IAQYALLGYFIRSWRTLAILVNLI, the protein stability index is 3.51.

Take IAQYALLGYFIRSWRTLAILVNLL: the protein stability index was determined as 3.01.

Regarding IAQYALLGYFIRSWRTLAILVNLE, the protein stability index is 3.5.

As to IAQYALLGYFIRSWRTLAILVNLK, the protein stability index is 3.21.

Take IAQYALLGYFIRSWRTLAILVNLP: the protein stability index turned out to be 3.8.

Regarding IAQYALLGYFIRSWRTLAILVNLM, the protein stability index is 2.6.

For IAQYALLGYFIRSWRTLAILVNLS, the protein stability index is 2.34.

For IAQYALLGYFIRSWRTLAILVNLT, the protein stability index is 3.58.

For the variant IAQYALLGYFIRSWRTLAILVILQ, the protein stability index worked out at 3.28.

Take IAQYALLGYFIRSWRTLAILVRLQ: the protein stability index came to 1.22.

As to IAQYALLGYFIRSWRTLAILVALQ, the protein stability index amounted to 2.95.

With IAQYALLGYFIRSWRTLAILVGLQ, the protein stability index was 1.88.

As for IAQYALLGYFIRSWRTLAILVMLQ, the protein stability index turned out to be 2.6.

As for IAQYALLGYFIRSWRTLAILVHLQ, the protein stability index was found to be 2.27.

In the case of IAQYALLGYFIRSWRTLAILVSLQ, the protein stability index was 2.85.

Take IAQYALLGYFIRSWRTLAILVYLQ: the protein stability index came to 1.37.

Take IAQYALLGYFIRSWRTLAILVVLQ: the protein stability index worked out at 2.23.

As for IAQYALLGYFIRSWRTLAILVQLQ, the protein stability index turned out to be 3.36.

In the case of IAQYALLGYFIRSWRTLAILVELQ, the protein stability index was 2.57.

In the case of IAQYALLGYFIRSWRTLAILVWLQ, the protein stability index was found to be 3.89.

With IAQYALLGYFIRSWRTLAILVKLQ, the protein stability index is 2.52.

As to IAQYALLGYFIRSWRTLAILVFLQ, the protein stability index turned out to be 2.84.

Consider IAQYALLGYFIRSWRTLAILVTLQ, for which the protein stability index stood at 1.9.

Turning to IAQYALLGYFIRSWRTLAILVDLQ, the protein stability index came to 3.52.

In the next series the parent is B2. The series is described as above. Particulars: c terminus: a fixed tail appended.
As for VAAACRYLQIFATRRSCIDESQIS, the protein stability index was 1.18.

With VAAAGRYLQIFATRRSCIDESQIS, the protein stability index was found to be 2.91.

Take VAAAHRYLQIFATRRSCIDESQIS: the protein stability index was found to be 3.09.

VAAATRYLQIFATRRSCIDESQIS: the protein stability index was found to be 1.66.

As for VAAARRYLQIFATRRSCIDESQIS, the protein stability index amounted to 2.94.

Take VAAAKRYLQIFATRRSCIDESQIS: the protein stability index was 1.48.

For the variant VAAADRYLQIFATRRSCIDESQIS, the protein stability index was determined as 2.36.

For VAAAQRYLQIFATRRSCIDESQIS, the protein stability index came to 2.12.
